The results in this text go back to paper PMC12148439.

In test [1] the target is CitAGacS649 (chimeric protein: GacS649 with its PDC domain replaced by the PDC domain of CitA from Klebsiella pneumoniae, C-terminal octa-histidine tag) (Pseudomonas aeruginosa | Klebsiella pneumoniae) (UniProt P52687). Kind of test: MST; CitAGacS649 labelled with AlexaFluor 488 at 80 nM, RetSHK titrated from 140 uM to 1.06 nM, 37 °C, 0.007% DDM, with 10 mM sodium citrate.

The target is the same in test [2]. Kind of test: MST; GacS649 or CitAGacS649 labelled with AlexaFluor 488 at 80 nM, RetSHK titrated from 140 uM to 1.06 nM, 37 °C, 0.007% DDM, no citrate; apparent constants.
Test [3] addresses GacS649 (GacS residues 1-649 with C-terminal octa-histidine tag) (Pseudomonas aeruginosa). The description is as above.

B1: RetSHK (histidine kinase region of the sensor histidine kinase RetS, residues 413-649) (domain or fragment)
chain: QTKAEFLAKISHEIRTPMNGVLGMTELLLGTPLSAKQRDYVQTIHSAGNELLTLINEILDISKLESGQIELDEVQFDLNALIEDCLDIFRVKAEQQRIELISFTQPQVPRVIGGDPTRLRQVVLSLLDNAFKQTEEGEILLVVALDDQGETPRLRIAVQDSGHPFDAKEREALLTAELHSGDFLSASKLGSHLGLIIARQLVRLMGGEFGIQSGSSQGTTLSLTLPLDPQQLENPTA
In turn, B1 registered a fold decrease in affinity with 10 mM citrate against no citrate in test [1] of 5 fold. For the same molecule, the Kd in test [2] and in test [3] was 10 µM each time.
